Reference: US20200048348A1
Positions count from the first letter of the chain named. Blank lines part the entries; values can stand above or below the binder they belong to.

What was measured:
human CD3 (human) [1] = molecular target: human CD3 (human) (UniProt P07766); test: Octet, protein binding affinity of the anti-CD3 arm of the bispecific; form of the CD3 protein not stated
human CD3 (human) [2] = molecular target: human CD3 (human) (UniProt P07766); test: flow cytometry, bispecific antibody on Jurkat cells; antibody concentration not given
human CD3 (human) [3] = molecular target: human CD3 (human) (UniProt P07766)

Chain of human CD3 (human) (P07766 23-207, chain 1 of 2): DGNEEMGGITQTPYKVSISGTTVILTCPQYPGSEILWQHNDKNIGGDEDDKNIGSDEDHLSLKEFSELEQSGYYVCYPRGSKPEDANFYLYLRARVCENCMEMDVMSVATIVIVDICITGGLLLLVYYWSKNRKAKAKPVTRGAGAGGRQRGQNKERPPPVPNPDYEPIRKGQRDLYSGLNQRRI
Chain of human CD3 (human) (P04234 22-171, chain 2 of 2, further chain): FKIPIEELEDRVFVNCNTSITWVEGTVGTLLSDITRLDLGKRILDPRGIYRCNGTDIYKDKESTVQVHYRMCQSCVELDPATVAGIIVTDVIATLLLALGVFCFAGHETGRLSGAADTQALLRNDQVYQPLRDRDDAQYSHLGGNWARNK

Kd (human CD3 (human) [1]): 714 nM
Jurkat cell bind (MFI) (human CD3 (human) [2]): 67 MFI
IFNg released by pan T-cells, bispecific on plate-coated BCMA protein, at 12 ng/mL bispecific (human CD3 (human) [3]): 333 pg
IL-2 released by pan T-cells, bispecific on plate-coated BCMA protein, at 37 ng/mL bispecific (human CD3 (human) [3]): 44 pg
IL-6 released by pan T-cells, bispecific on plate-coated BCMA protein, at 111 ng/mL bispecific (human CD3 (human) [3]): 0.5 pg
IL-10 released by pan T-cells, bispecific on plate-coated BCMA protein, at 111 ng/mL bispecific (human CD3 (human) [3]): 2.4 pg
TNFa released by pan T-cells, bispecific on plate-coated BCMA protein, at 12 ng/mL bispecific (human CD3 (human) [3]): 485 pg
B1: CD3_F2F-BCMA (bispecific antibody, part only; not given: anti-BCMA arm and common light chain, part only)
anti-CD3 heavy chain: EVQLVESGGGLVQPGRSLRLSCAASGFTFHNYAMHWVRQAPGKGLEWVSGISWNSGSIGYADSVKGRFTISRDNAKNSLYLQMNSLRAEDTALYYCAKDSRGYGDYSLGGAYWGQGTLVTVSS
%kill of U266 tumor cells with human pan T-cells at 333 ng/mL bispecific (human CD3 (human) [3]): 51%
kill EC50: U266 tumor cell lysis with human pan T-cells (human CD3 (human) [3]): 0.0098 µg/mL

Kd (human CD3 (human) [1]): 1000 nM
Jurkat cell bind (MFI) (human CD3 (human) [2]): 31 MFI
IFNg released by pan T-cells, bispecific on plate-coated BCMA protein, at 12 ng/mL bispecific (human CD3 (human) [3]): 154 pg
IL-2 released by pan T-cells, bispecific on plate-coated BCMA protein, at 37 ng/mL bispecific (human CD3 (human) [3]): 8 pg
IL-6 released by pan T-cells, bispecific on plate-coated BCMA protein, at 111 ng/mL bispecific (human CD3 (human) [3]): 0.5 pg
IL-10 released by pan T-cells, bispecific on plate-coated BCMA protein, at 111 ng/mL bispecific (human CD3 (human) [3]): 0.6 pg
TNFa released by pan T-cells, bispecific on plate-coated BCMA protein, at 12 ng/mL bispecific (human CD3 (human) [3]): 553 pg
B2: CD3_F2B-BCMA (bispecific antibody, part only; not given: anti-BCMA arm and common light chain, part only)
anti-CD3 heavy chain: B1 anti-CD3 heavy chain with H30D, N31D, S107R
%kill of U266 tumor cells with human pan T-cells at 333 ng/mL bispecific (human CD3 (human) [3]): 38%
kill EC50: U266 tumor cell lysis with human pan T-cells (human CD3 (human) [3]): 0.15 µg/mL
